Measurements from PMC7496933, “TIM‐3 and CEACAM1 do not interact in cis and in trans” (European Journal of Immunology, 2020).

Target: T1, recombinant human CEACAM1 expressed in the murine myeloma cell line NSO (human, UniProt P13688 35-428)
T1 construct: human CEACAM1, recombinant; also called immobilized CEACAM1; CD66a; source: bought: R&D systems (expressed in NSO cells)
T1 sequence (looked up): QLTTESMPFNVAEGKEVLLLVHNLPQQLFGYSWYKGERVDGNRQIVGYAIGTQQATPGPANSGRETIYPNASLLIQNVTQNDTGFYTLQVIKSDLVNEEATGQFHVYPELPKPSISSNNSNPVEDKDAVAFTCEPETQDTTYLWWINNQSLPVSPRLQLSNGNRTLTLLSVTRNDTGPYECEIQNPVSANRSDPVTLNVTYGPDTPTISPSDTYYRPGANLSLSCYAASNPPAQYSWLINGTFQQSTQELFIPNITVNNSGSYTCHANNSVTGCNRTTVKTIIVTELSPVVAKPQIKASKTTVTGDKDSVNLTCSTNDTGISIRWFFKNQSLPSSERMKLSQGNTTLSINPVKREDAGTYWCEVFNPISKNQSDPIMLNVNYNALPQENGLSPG
Test: ELISA; Gal‐9 or CEACAM1 immobilized overnight at 4°C on Maxisorp plates (coating 0.5 μg/mL); Ig fusion proteins added in PBS‐0.5% BSA, 1 h at room temperature; detected with HRP‐labeled goat‐anti‐human IgG (Fc‐specific), ABTS, OD 405 nm
Details: both partners purified

binding result: binds
B1: fusion protein representing the extracellular domain of CEACAM1 (CEACAM1‐Ig) (Fc fusion, human, UniProt P13688 35-428, looked up)
chain: T1 sequence (looked up)
notes: CEACAM1 (CD66a), extracellular domain; also called CEACAM1 Ig fusion protein; source: bought: SinoBiological
